This is an account of results in the supplement of paper PMC9170038.

This series deals with MS2 coat protein. Nature of the series: apparent KD of MS2 coat protein; designed switch direction (-1 OFF switch, 1 ON switch): -1; higher = weaker reporter binding. The procedure, abridged:
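Designed RNA switches with common flanks were transcribed on Illumina chips by stalled E. coli RNA polymerase and titrated with SNAP-549-labelled MS2 coat protein, from 0.7 or 1.5 nM doubling to 3 µM, in Tris-HCl pH 7.5 buffer with KCl, MgCl2, BSA, DTT, tRNA and Tween-20. Steps lasted 0.8–1.5 h (lowest) to 10–20 min (highest). Titrations ran without input, with 200 uM small-molecule ligand, or with an oligonucleotide input. Normalised cluster fluorescence was curve-fitted, and apparent KD is the per-design median over clusters.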

[1] abbreviates: Eterna round: R95, input ligand: FMN 200 uM.
The mark [2] stands for this setting: Eterna round: R95, input ligand: microRNA oligo, concentration not stated.
Where [3] appears, read: Eterna round: R95, input ligand: none.
The mark [4] stands for this setting: input ligand: microRNA oligo, concentration not stated.

On to “ACAAGCGUUAAGGAUAUACUGCCCUCAUUCUCGGUAGAAGGUAACACUUGAGGAUCACCCAAGUGAAAACCUGA [Erxeesis] (Eterna round: R97, puzzle: Exclusion 6)”, for which the “apparent KD of MS2 coat protein” value reads like this: (input ligand: FMN 200 uM) 10.6 nM; (input ligand: none) 9.67 nM.

Turning to “ACAAGCGUUUUGCUCGUAAAGUAGGAACGCGAGAGCGGCACAUGAGGAUCACCCAUGUAGAGGCAGUUGGUGGAGAU [JR_SV3TOV2_Sub030] (puzzle: Sensor v3, turn-off variant 2)”, the “apparent KD of MS2 coat protein” value under setting [1] is 24.5 nM, the “apparent KD of MS2 coat protein” value under setting [2] came to 24.2 nM and the “apparent KD of MS2 coat protein” value under setting [3] came to 25.3 nM.

In the case of “ACAAGCUAAAUCAUAUCUUACAUGAGGAUCACCCAUGUUUUUGCAAUUAUGUUUGGCCUCCUUUGUGCUCGUCUUAU [JR_STOV1_Sub051] (Eterna round: R97, puzzle: Sensor, turn-off variant 1)”, the “apparent KD of MS2 coat protein” value runs as follows: (input ligand: FMN 200 uM) 16.4 nM; (input ligand: none) 16.7 nM.

Take “ACAAGCUUCGAUAUCCUUAACAUGAGGAUCACCCAUGUUCGUCUUAUGAUGGUCUGAUCCCUGAGGAUCGGACCGUU [JL-sv1-2.09 Brourd Mod] (puzzle: Sensor v3, turn-off variant 1)”: the “apparent KD of MS2 coat protein” value worked out at 40.9 nM under setting [1], 62.3 nM under setting [2] and 40.4 nM under setting [3].

Take “ACAAGCUUUUAGAUUCUUAACAUGAGGAUCACCCAUGUGCUCGUCUUAUUGGCCGGCCGGCCGCCGGCCGGCCGGCC (Eterna round: R97, puzzle: Sensor, turn-off variant 1)”: the “apparent KD of MS2 coat protein” value runs as follows: (input ligand: FMN 200 uM) 43.6 nM; (input ligand: none) 40.9 nM.

For “ACAAGCUUUUUGCUCGGGUACAUGAGGAUCACCCAUGUUUGUGUUUAUUGAGGUUGUGUUGUCGUGCGCUGCAGGUU [JR_SV3TOV1_Sub077] (puzzle: Sensor v3, turn-off variant 1)”, the “apparent KD of MS2 coat protein” value by setting is: under setting [1], 59.3 nM; under setting [2], 38.7 nM; under setting [3], 66.5 nM.

Turning to “ACAAGCUUUUUGUUCGUCUUAUAAUAAUAAAUAAAUAUAACAUGAGGAUCACCCAUGUUGAGAAGACAACCUCAUGU [Sesor Array 24 - Jieux - Sensor v3, turn-off variant 2] (puzzle: Sensor v3, turn-off variant 2)”, the “apparent KD of MS2 coat protein” value runs as follows: under setting [1], 242 nM; under setting [2], 108 nM; under setting [3], 420 nM.

For the sequence “ACAAGUUUUUAGAUUCUUAACAUGAGGAUCACCCAUGUGCUCGUCUUGUUGGGCCCGGGCCCGCCGGGCCCGGGCCC (Eterna round: R97, puzzle: Sensor, turn-off variant 1)”, the “apparent KD of MS2 coat protein” value runs as follows: (input ligand: FMN 200 uM) 60.5 nM; (input ligand: none) 72.2 nM.

Regarding “ACAAGUUUUUAGAUUCUUAACAUGAGGAUCACCCAUGUGCUCGUCUUGUUUGUACUAUCACCGAAGGUGAUAGUACA (Eterna round: R97, puzzle: Sensor, turn-off variant 1)”, the “apparent KD of MS2 coat protein” value by setting is: (input ligand: FMN 200 uM) 69.9 nM; (input ligand: none) 70 nM.

Take “ACACCACAUGAGGAUCACCCAUGUAAGGAUAUAACGCAUCCGCGUAACUGCGGGCAAGUUAGAAGGUGUAUGGG [Eternabot (L2) Solution 91] (Eterna round: R97, puzzle: Exclusion 1)”: the “apparent KD of MS2 coat protein” value was determined as 91.9 nM (input ligand: FMN 200 uM) and 49.6 nM (input ligand: none).

On to “ACACUGCGAGGAUAUACAUGAGGAUCACCCAUGUGUCGGCAGCCACGGUAGCACUAGUGUAGAAGGCGCAUUAG [EX3 #42] (Eterna round: R97, puzzle: Exclusion 3)”, for which the “apparent KD of MS2 coat protein” value reads like this: (input ligand: FMN 200 uM) 41.1 nM; (input ligand: none) 28.3 nM.

Turning to “ACAGCUAAUCUGCUCGUCUACAUGAGGAUCACCCAUGUCAUGGUCCACCUAAGAGUCAGUUACCCAAGUGAUAUUCG [Eternabot (L1) Solution 29] (Eterna round: R97, puzzle: Sensor, turn-off variant 1)”, the “apparent KD of MS2 coat protein” value (input ligand: FMN 200 uM) stood at 204 nM and the “apparent KD of MS2 coat protein” value (input ligand: none) came to 224 nM.

Consider “ACAGUGUUAGGAUAUGUGUGAGUUAGUCUCGACUAGUCGAUGCAGAAGGAACAUGAGGAUCACCCAUGUAGAUC [EX4 #80] (Eterna round: R97, puzzle: Exclusion 4)”, for which the “apparent KD of MS2 coat protein” value by setting is: (input ligand: FMN 200 uM) 136 nM; (input ligand: none) 64 nM.

For the sequence “ACAUCACAGCUAGGAUAUAGAUGACAUGAGGAUCACCCAUGUUAUCCCAUGUUGACGAAAACCGACUAGAAGGAGCUACAGAUG [Ex NG2 #6] (Eterna round: R96, puzzle: Exclusion NG 2)”, the “apparent KD of MS2 coat protein” value came out at 101 nM (input ligand: FMN 200 uM), 40.2 nM under setting [4] and 63.7 nM (input ligand: none).

“ACAUGACUGCUAGGAUAUAGAUGACAUGAGGAUCACCCAUGUUGUCUCAUGUUUAUGGAAACGGACUAGAAGGAGUAGUAUAUG [Ex NG2 #15] (Eterna round: R96, puzzle: Exclusion NG 2)”: the “apparent KD of MS2 coat protein” value runs as follows: (input ligand: FMN 200 uM) 20.6 nM; under setting [4], 14.5 nM; (input ligand: none) 21.3 nM.

As for “ACAUGAGGAUCACCCAUGUAAACAUGAUGGCUGAUGUAGAGCUAGGAUAUGAGUGGCUUUCUAUCUCAGAAGGAGCUUGACUGG [Deportation 43 - Jieux - Exclusion NG 3] (Eterna round: R96, puzzle: Exclusion NG 3)”, the “apparent KD of MS2 coat protein” value was found to be 30.8 nM (input ligand: FMN 200 uM), 22.8 nM under setting [4] and 35.7 nM (input ligand: none).

With “ACAUGAGGAUCACCCAUGUAAUCAUGAUGGCUGAUGUAGAGCUAGGAUAUGAGUGGCUUUCUAUCUCAGAAGGAGCAAGACUGG [Deportation 40 - Jieux - Exclusion NG 3] (Eterna round: R96, puzzle: Exclusion NG 3)”, the “apparent KD of MS2 coat protein” value by setting is: (input ligand: FMN 200 uM) 44.1 nM; under setting [4], 31.6 nM; (input ligand: none) 36.8 nM.

With “ACAUGAGGAUCACCCAUGUAAUGAUGGGUACUAUAUUAUUCGUAGGAUAUCGUUGUUAGUUUGUUCGAGAAGGACGUUUGCCUU [JR_ExcNG3_Sub055] (Eterna round: R96, puzzle: Exclusion NG 3)”, the “apparent KD of MS2 coat protein” value under setting [4] stood at 824 nM.

With “ACAUGAGGAUCACCCAUGUACAGGGUUUAGUUUCAUCGUUUGAAGGAUAUACUCCGUUAGUUGUCGUAGAAGGUCACAGUUUGG [JR_ExcNG3_Sub007] (Eterna round: R96, puzzle: Exclusion NG 3)”, the “apparent KD of MS2 coat protein” value (input ligand: FMN 200 uM) is 179 nM, the “apparent KD of MS2 coat protein” value under setting [4] stood at 128 nM and the “apparent KD of MS2 coat protein” value (input ligand: none) came out at 178 nM.

On to “ACAUGAGGAUCACCCAUGUACUGGGUUUAGUUUCAUCGUUUGAAGGAUAUACUCCGUUAGUUGUCGUAGAAGGUCACAGUUUGG [JR_ExcNG3_Sub008] (Eterna round: R96, puzzle: Exclusion NG 3)”, for which the “apparent KD of MS2 coat protein” value reads like this: (input ligand: FMN 200 uM) 457 nM; under setting [4], 407 nM; (input ligand: none) 517 nM.

In the case of “ACAUGAGGAUCACCCAUGUCCGGCUGGUCUGUUCCGGCUGUCGAGGAUAUAGUCCGGUGUUCGCGCUAGAAGGCGAGGGCUGGA [Aenatbe mod 48] (Eterna round: R96, puzzle: Exclusion NG 3)”, the “apparent KD of MS2 coat protein” value was found to be 88 nM (input ligand: FMN 200 uM), 29.9 nM under setting [4] and 43.6 nM (input ligand: none).

As for “ACAUGAGGAUCACCCAUGUCCGGCUGGUCUGUUUCGGUUGUCGAGGAUAUAGUUCGGUGUUCGCGCUAGAAGGUGGGAGCUGGC [Aenatbe mod 57] (Eterna round: R96, puzzle: Exclusion NG 3)”, the “apparent KD of MS2 coat protein” value is, setting by setting: (input ligand: FMN 200 uM) 143 nM; under setting [4], 108 nM; (input ligand: none) 175 nM.

Consider “ACAUGAGGAUCACCCAUGUCCGGCUGGUCUGUUUCGGUUGUCGAGGAUAUAGUUCGGUGUUCGCGCUAGAAGGUGGGAGCUGGG [Aenatbe mod 56] (Eterna round: R96, puzzle: Exclusion NG 3)”, for which the “apparent KD of MS2 coat protein” value reads like this: (input ligand: FMN 200 uM) 161 nM; under setting [4], 116 nM; (input ligand: none) 147 nM.

In the case of “ACAUGAGGAUCACCCAUGUCCGGUUGGUCUGUUCCGGCUGUCGAGGAUAUAGUCCGGUGUUCGCGCUAGAAGGUGAGGGCUGGA [Aenatbe mod 46] (Eterna round: R96, puzzle: Exclusion NG 3)”, the “apparent KD of MS2 coat protein” value reads like this: (input ligand: FMN 200 uM) 775 nM; under setting [4], 259 nM; (input ligand: none) 500 nM.

For the sequence “ACAUGAGGAUCACCCAUGUCCGUCUGGUCUGUCUCGGCUGUCGAGGAUAUAGCUCGGUAUCCGCGCUAGAAGGCGGGAGUCGGU [Aenatbe mod 93] (Eterna round: R96, puzzle: Exclusion NG 3)”, the “apparent KD of MS2 coat protein” value was 73.6 nM (input ligand: FMN 200 uM), 66.7 nM under setting [4] and 88.5 nM (input ligand: none).

Take “ACAUGAGGAUCACCCAUGUCUGGCUGGUCUGCUCCGGUUGUUGAGGAUAUAGUUCGGUGUUCGCGCUAGAAGGUGAGGGCUGGC [Aenatbe mod 38] (Eterna round: R96, puzzle: Exclusion NG 3)”: the “apparent KD of MS2 coat protein” value turned out to be 34.4 nM (input ligand: FMN 200 uM), 32.1 nM under setting [4] and 39 nM (input ligand: none).

Regarding “ACAUGAGGAUCACCCAUGUGAAAACAAUGGCUGACUUUGAGACAGGAUAUAGGUGCAUAUCAAACCUAGAAGGGUCAUUACUGG [Deportation 93 - Jieux - Exclusion NG 3] (Eterna round: R96, puzzle: Exclusion NG 3)”, the “apparent KD of MS2 coat protein” value is 43.5 nM (input ligand: FMN 200 uM), 31.6 nM under setting [4] and 38.2 nM (input ligand: none).

“ACAUGAGGAUCACCCAUGUGAAACCAAUGGCUGACUUUGAGCUAGGAUAUUCGUGCAUAUCAAACGAAGAAGGAGCAUUACUGG [Deportation 97 - Jieux - Exclusion NG 3] (Eterna round: R96, puzzle: Exclusion NG 3)”: the “apparent KD of MS2 coat protein” value is 36.9 nM (input ligand: FMN 200 uM), 31.5 nM under setting [4] and 34.8 nM (input ligand: none).
